Test results: the nanobody polyreactivity screen of Harvey et al. (2022)

Assay: yeast display, Sf9 membrane polyspecificity reagent, FACS + sequencing; frameworks hold sequencing errors
In short: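 Genes from sorted yeast were amplified by colony PCR, read by MiSeq 2 × 250 sequencing and filtered on CDR length. These cells carried a synthetic nanobody library in Saccharomyces cerevisiae BJ5465 and were sorted by FACS into low and high (top ~1%) gates on anti-HA and streptavidin fluorescence. Polyreactivity is labelled according to the gate of origin.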

| Sequence | polyreactivity (PSR sort gate) |
| --- | --- |
| QVQHVESRGGLVQAGGSLRLSCAASGSIFSANAMGWYRQAPGKVRELVAAITRGGSTNYADSVKGRFTISRDNAKNTVYLQMNSLKPEDTAVYYCNAEPDPYSSGRVRRDYDYWGQGTQVTVSS | low polyreactivity |
| QVQLVESGGGLVQAGGSLRLSCAASGYTFPTNAMGWYRQAPGKERELVAAISIDDGITYYADSVKGRFTISRDNAKNTVYLQMNSLKPEDTAVYYCSAEVGIEYEYWGQGTQVTVSS | high polyreactivity |
| QVQLVESGGGIVQAGGSLRLSCASSGFTLGLYAMGWYRQAPGKERELVAVISGRGSRTYYADSVKGRFTISRDNAKNTVYLQMNSLKPEDTAVYYCAASYRTYYRTGYDYWGQGTQVTVSS | high polyreactivity |
| QVQLVESVGGLVQAGGSLRLSSAASGFTFTRNTMGWYRQAPGKERELVAAITRGGSTNYADSVKGRFTISLDTAKNPVYLQMHSLKPEDTAVYYCAADAPFDSPYNYWGQGTQVTVSS | low polyreactivity |
| QVQLVESGGGLVQAGGSLRLSCAASGFTFSTNAMGWYRQAPGKERELVAAISCTGGSTYYADSVKGRFTISRDNAKNTVYLQMNSLKPEDTAVYYCATKFFNPGMYFWGQGTQVTVSS | high polyreactivity |
| QVQLVESGGGLVQAGGSLRLSCAASAYTFDGYAMGWYRQAPGKERELVAAINSGGGTYYADSVKGRFTISRDNAKNSVYLQMNSLKPEDTPVYYCNASVKPSNVWSRGYDYWGQGTQVTVSS | low polyreactivity |
| QVQLVDSGGGLVQAGGSLRLTCAASGNTFYYYAMGWYRQAPGKERELVAAINRGGNTYYADSVKGRFTISRDNAKNTVYLQMNSLKPEDTAVYYCAKRKSNPGNRQEYYYWGQGTQVTVSS | low polyreactivity |
| KVQIVESGGGLVQAGRSLRLSCAASGLTFFGNAMGWYRQAPGKERDLVATISSCGGTSYADSVKGRFTISRDNAKNTVYLQMNSLKPEDTEVYYCAADIVEEFDYWGLGTQVTVSS | low polyreactivity |
| QVQLVESGGGLVQAGGSRPLSCAASGFIFDSNAMGWYRQAPGKGTDLVAAISWSGTSTFYADSVKGRFTISRDNAKNTVYLQMNSLNPEDTAVYYCAAKYGRRGFNRYGYWGQGTQVTVSS | high polyreactivity |
| QVQLVESVGRLVQAGGSLRLSCAASGSTITPNAMGWYRQAPGKERELVAAINWSGTSTYYADSVKGRFTISRDNEKNTVYLQMNSLKQEDTAVYSCAASYPDVDYDYWGHGTQVTVSS | high polyreactivity |
| QVQLVESGGGLVQAGGILRFSCAASGSTFGLNAMGWYRQAPGQERELVAAISWSGGTTYYADSVKGRFTISRDNAKNTVYLQMNSLTPEDTAVYYCAADVYSSWGYYEVYYWGQGTQVTVSS | high polyreactivity |
| QVQLVESGGGLVQAGGSLRLSCAASGFTFYTYAMGWYRQAPGKERELVAAISGSGSRTYYADSVKGRFTISRDNAKNTVYLQMNSLKPEDTAVYYCNAGYGSGSLHREFNYWGQGTQVTVSS | low polyreactivity |
| QVQLVESGGGLVQAGGSLRLSCAASGFTITIYAMGWYRQAPGKERELVATISGRAGRTYYADSVKGRFTISRDNAKNTVYLQMNSLKPEDTAVYYCNAGQWRYPGLYYYWGQGTQVTVSS | high polyreactivity |
| QVQLVESGGGLVQAGGSLRLSCAASGLIFYSYAMGWYRQAPGKERELVAAINGGGGSTYYADSVKGRFTISRDNAKNTVYFQMNSLKPEDTAVSYCAAPYYRLTGWSRYDYWGQGTQVTVSS | high polyreactivity |
| QVQLVESGGGLVQAGGSLSLSCAATGSTLKFNAMGWYRQAPGKERELVAAINFSGGSTYYADSVKGRFTISRDNAKNTVYLQMNSLKPEDTAVYYCAAEASYYSRSVRWRYDYYYWGQGTQVTVSS | high polyreactivity |
| QVQRVESGGGLVQAGGSLRISCAASGRTFRKYAMGWYRQARGKERELGAAMSWSGGSTYYANSVKGRFPISRDKPKNTVYLQMNSLKPEETAVYYCASDVDRFYTYKYDYWGQGTQVTVSS | low polyreactivity |
| QVQLVQSGGGLVQAGGSLRISCAPSGLTCNGNAMGWYRQAPGKEREMVAAISSSGGTTYYADSVKGRFTISRDNAKNTVYLEMNSLKPEDTAVSYCAARPSGGYESTRTRDYWGQGTQVNVSS | low polyreactivity |
| QVQLVESGGGLVQAGGSLRLSCAASGRTSGGYAMGWYRQAPGNERELVASITWSGDTTYYADSVTGRFTISRDNAKNTVYLQMNSLKPEDTAVYYCATIPGYVYYWQYKYDYWGQGTQVTVSS | low polyreactivity |
| QVQLVESGGGLVQAGGSLRLSCAASGRTFVHYTMGWYRQTPGKDRELVAAISGTGTSTYYADSVKGRFTISRDNAKNTVYLQMNSLKPEDTAVYYCARDPYFGFHIGYPRRDYWGQGTQVTVSS | low polyreactivity |
| QVQLVESGGDLVQAGGSLRLSCGASGFIFDGYAMGWYRQAPGKERELVAAISSSGGRTHYADSVKGRFKISRDNAMNTVYLQMNSLKAEDTAVYYCAATVRGKRSTYDYWGQGTQVTVSS | high polyreactivity |
| QVQLVESGGGLVQAGGSLRLSCAASGLTFYPNAMGWYRQAPGKEREFVASISISGRTYYADSVKGRFTISRDNAKNTVYLQMNSLKPEDTAVYYCAARYVRSGLYRKYDYWGQGTQVTVSS | high polyreactivity |
| QVQLVESGRGLVQAGGSLPLSCAASGRTFPSNTMGWYRPAPGKERELVAAINRSGGTTYYADSVKGRCTISRDKAKNTVYLQINSLKPEDTAVYYCAVLSRYKACRKYDYWGQCTQVTVSS | high polyreactivity |

| Sequence | polyreactivity (PSR sort gate) |
| --- | --- |
| QDQLVESGGGLVQAGGSLRLSCAASGIIFYGYGMGWYRPAPGKERELVAAISRSGGSTYYADSVKGRFTISRDNAKNTVYLQMNSLKPEDTAVYSCAASGVTYDYWGQGTQVTVSS | high polyreactivity |
| QVQLVESGGGLVQAGGSLRLSCAASGSIFIAYGMGWYRQEPGKERELVAAITVSGGNTYYADSVKGRFTISRDNAKNTVYLQMNSLKPEDNAVYYCADVTYWQDGHRGNYWGQGTQVTVSS | low polyreactivity |
| QVQLVESGGGLVQAGGSLRLSCAASGSTFGSYAMGWYRPAPGKERELVAAISYSGGSTYYADSVKGRFTISRDNAKNTVYLQMNSLKPEDTAVYYCATVRKYRAMVYWGQGTQVTVSS | high polyreactivity |
| QVQLVESGGGLVQAGGSLRLSCAASGSIFTSYAMGWYRQAPGKERELVAAITSTGGSTYYADSVKGRFTISRDPAKNTVYLLMNSLKPEDTAVYYCNADGGTPYDYWGQGTQVTVSS | low polyreactivity |
| QVQLVEPGGCLVQAGGSLRLSCAASGSIFAYNSMGSYRQAPGKERELVAAITISGGRTYYADSVKGRFTISRDNAKNTVYLNMNSLKPEDTAVYYCNADNARGRSGVRRYYWGQGTQVTVSS | high polyreactivity |
| QVQLVESGGGLVQAGGSLRLSCAASGIIFDYYAMGWYRQAPGKERELVASNSWSGGGTYYADSVKGRFTISRDNAKNTVYFQMNRLNPEDTAVYYCAADGSTVNAPRWSDPYDYWGQGTQVTVSS | low polyreactivity |
| QVQLEDSGGGLVQAGGSLRLSCAASGRIFGTNAMGWYRQAPGKERELVATITRGGGNTYYADSVKGRFTISRDNAKNTVYLQMNSLKPEDTAVYYCAAKFNRFAWYSHYDYWGQGTQVTVSS | low polyreactivity |
| QVQLVESGGGLVQAGGSLRLSCAASGLTFRWYAMGWYRQAPGKERELVAAISSSGRTNYADSVKGRFTISRDNAKNTVYLQMNSLKPEDTAVYYCAADSSWRTSDYWGQGTQVTVSS | low polyreactivity |
| QVQLVESGGGLVQAGGSLRLSCAASGFIFNAYAMGWYRQAPGKERELVAAISTRCSNTYYADSVKGRFTISRDNAMNTVFLQMNSLIPEDTAVYYCAARGYVTYSKSNYWGQGTQVTVSS | high polyreactivity |
| QVQLVESGGGLVQAGGSLRLSWAASGSKSCADVMGWYRPEPGKERELLAAISSGTSTYYADSVKGRFTISRDNAKNTVYLQMNSLKPEDTGVYYCAAYYYSYPTNGGYGYCGQGTQVTVSS | low polyreactivity |
| QVQLVESGGGLVQAGGSLRLSCAPSGSTFYSYAMGGYRQAPGKERELVAAITVSGTSTYYADSVKGRFTISRDNAKNTVYLQMNSLKPEDTAVYYCAARPRRRYYGYDSWGQGTQVTVSS | high polyreactivity |
| QVQLVESGGGLVQAGGSLRLSCAASGIFRSNAMGWYRQAPGKERELVAGISSGGGTNYADSVKGRFTISRDNAKNTVYLQMNSLKPDDTAVYYCAKERIYFYYWYVYTDLVYEYDYWGQGTQVTVSS | low polyreactivity |
| QVQLVESGGGLVQAGGSLRLSCAASGSIFGYYSMGCYRQAPGKERELVATITFGGGSTYYADSVKGRFTISRDNAKNTVYLQMNSLKPEDTAVYYCAADSGYLGFYGDEYSWGQGTQVTVSS | low polyreactivity |
| QVQLVESGGGLVQAGGSLRLSCAASGIIFLVYAMGWYRQAPGKERELVAGISGSATSTNYADSVKGRFTISRDNAKNTVYLQMNSLKPEETAVYYCAASYYGYYVPDNSKYGYWGQGTQVTVSS | low polyreactivity |
| QVQLVESGGGLVQAGGSLRLSCSASGRIFPFNDMGWYRQAPGKEREFVADISDNGGSTYADSVKGRFTISRDNAKNTVYLQMNSLKPEDTAVYYCAADLLDISSYDGMDYWGQGTQVTVSS | low polyreactivity |
| QVQLVESGGGLVQAGGSLRLSCAASGSISGWYAMGWYRHAPGKERELVADISSIDGSTYYADSVKGRFTISRDNEKNTVYLQMNSLKPEDTSVYYCSADRGFYYEYDYWGQGTQVTVSS | low polyreactivity |
| QGQLVVSGGGLVQAGGSLRLSCAASGRTFSVNAMGGYRQAPGKERELVAAITSGASTNYADSVKGRFTISRDNAKNTVYLQMNSLKPEDTAVYYCAADATYGHVPAEYDYWGQGTQVTVSS | low polyreactivity |
| QVQLQESNGGLVQAGGCLRLSCAASGNIFDADIMGWFRKAPGIERELVASITDGGSTNYADSVKGRFTINRDNALNTVYLQMYSLKPEDTAVYYCAVSYKGWYQLGYWGQGTQVTVSS | high polyreactivity |
| QVQLVESGGGLVQAGGSLRLSCAASGLTLQGYVMGWSRQAPGKERELVAAISTGGSTHYADSVKGRFTISRDNAKNTVYLQMNSLKPEDTAVYYCAAGWVLWFRDPQGRASYYWGQGTQVTVSS | high polyreactivity |
| QVQLVESGGGLVQAGGSLRLSCAASGFIFDSNAMGWYRQAPGKERELVAAISRSGASTYYADSVKGRFTISRDNAKNTVYLQMNSLKPEDTSVYYCAASVRKIHDRFYYWGQGTQVTVSS | high polyreactivity |
| QVQLVESGGGLVQAGGSLRLSCAASGRIFWYNAMGWYRQAPGKERELVAGITSGGRTNYADSVKGRFTISRDNAKNTVYLQMNSLKPEDTAVYYCAADVPPGEVVTNDYWGQGTQVTVSS | low polyreactivity |
